Test results: the DeepSol protein solubility set

assay: soluble on expression in E. coli; label from the status in PepcDB or PDB records

| Sequence | soluble on expression in E. coli |
| --- | --- |
| MKGILGFEYGIVQAPLGPDISGPELVAAVANAGGIGLLRCPDWECPDYLRELIRKTKTLTEKPFGIGVVLAFPHDLNIKTILEEKVAVLQLYWGDCSQELVDDAHFAGVKVIPQVGNVEEARKAVAVGVDAIIVQGREAGGHVIGKDGLFSLLPRVVDLVGERDIPVIAAGGIVDGRGYVAALSLGAQGVCLGTRFVATHESYAHPIYKRKLIEYEKTEYTDVFGRARWPGAPQRVLETPFFDDWRSLPAHENEVNQPIIGRSTIHGVEKEIRRFSGTVPNMTTTGDLESMAMYAGQSVGLIKEILPAGEVVKSLVEEAQALILQKFNNATTT | not soluble |
| MAHHHHHHSLIDCRYYQQNECRSCQWLEIPCSQQLTEKQYHLKQQLISINYDEAQWVAPFQSNQQGFRNKAKMVVSGSVERPILGILKNPNDPQSAIDLCDCPLYPTHFSAIFSILKDFIGRAGLVPYNIAKQKGELKYILLTESIATEKLMLRFVLRTENKLPLIRRELPKLLEKLPHLEVISINLQPQHAAILEGEQEIFLTEQQFLPENFNGIPLFIRPRGFFQTNPKVAAGLYATAQQWVAEFPIYNLWDLFCGVGGFGLHCAKALQEKWGKPIKLTGIEISSSAILAASHSAKILGLEHVNFQSLDAASVIENKNENKPDLVIVNPPRRGIGKELSEFLNQIQPHFILYSSCNAMTMGKDLQHLTCYKPLKIQLFDMFPQTSHYEVLVLLEREG | not soluble |
| MAMNGTITTWFKDKGFGFIKDENGDNRYFHVIKVANPDLIKKDAAVTFEPTTNNKGLSAYAVKVVPESKYIYIAGERLKLTSIKSYLVYSEEVPADTRIDKENTVLSVGVLMNSIRPKSVAEPDEIRSLKKLAITTFQGTTLIFSEDEIDVDATVKLLKVLEHHHHHH | soluble |
| SASGDFCSPGEGMEILQQVCSKQLPPCNLSKEDLLQNPYFSKLLLNLSQHVDESGLSLTLAKEQAQAWKEVRLHKTTWLRSEILHRVIQELLVDYYVKIQDTNVTSEDKKFHETLEQRLLVTELMRLLGPSQEREIPPLLGLEKADLLELMPLSEDFVWMRARLQQEVEEQLKKKCFTLLCYYDPNSDADSETVKAAKVWKLAEVLVGEQQQCQDAKSQQKEQMLLLEKKSAAYSQVLLRCLTLLQRLLQEHRLKTQSELDRINAQYLEVKCGAMILKLRMEELKILSDTYTVEKVEVHRLIRDRLEGAIHLQEQDMENSRQVLNSYEVLGEEFDRLVKEYTVLKQATENKRWALQEFSKVYR | not soluble |
| MAHHHHHHMLKSSIVLLRRGKPRPRAGMFPEKYRRVPTLLKPQQGGQQYFNEFLIRSANDALEAQQQGYGSAFRVGGSGAARILADGNATAADGIHDGEISSVHPRLPQADIDGVLQRSRAETIQAELKQLVAQDGFISQRGFNERLWYEQEHHRLRTHGDGVEASPSEVAATAAASSSTAEAVSATGEGRAVPERILGDDYFQSKFGYSLLKGRSPDASAVADNVKAYAQLDLWGEMPMYSRDFVFLYLVSRRRNTYAVAYDYDGKRLLPTYTAGNRGLKGGDRGFRGDGSTDNGHQVTSMYLNDLLPKIREARAASGRPLGRGEKIDLVVRVMGFYNGRQGAVRAVQDRSADFRVRYLEDVTPFPLNGPKMPRGVFR | not soluble |
| MNVIEGVVATPNARVAIAIARFNNFINDSLLDGAIDALKRIGQVSDDNITVVWVPGAYELPLVANVLAKTNRYDAVIALGTVIRGGTAHFEYVAGEASSGLSSVAMNSDIPVAFGVLTTESIEQAIERAGTKAGNKGAEAALTALEMINVIKAIKG | not soluble |
| MGSDKIHHHHHHMLDSPLSLLAGVGAEIAAGNLIPFLGPDVLTIEAEPPVPVGARTLSLALASKVGVPGRIKNNLWHSAQYIETHKHRVTLDKLMAAFFQPIPEPNALHRWLAGLPKLPMVVDTWYDGAMKAAFEAVGRESWGIVQGCSKARRLDGGVWFRAVSPDGAIVAEDVAESWRTVLYKPHGAAQPTGDVLVSDSDYVEVLTDIDIGTPIPQLVKDRRSNRGFVFLGCRFYDQILRTFARQISKRCGGPRYAVVPEELTRNELKFLEVEGITPITMPLAEAVALMTAAKTA | not soluble |
| MRMRHKPWADDFLAENADIAISNPADYKGKWNTVFGNDNPIHIEVGTGKGQFISGMAKQNPDINYIGIELFKSVIVTAVQKVKDSEAQNVKLLNIDADTLTDVFEPGEVKRVYLNFSDPWPKKRHEKRRLTYSHFLKKYEEVMGKGGSIHFKTDNRGLFEYSLKSFSEYGLLLTYVSLDLHNSNLEGNIMTEYEEKFSALGQPIYRAEVEWRTLEHHHHHH | not soluble |
| MGSDKIHHHHHHMLSHETIWNAIDRLAEQYHLTPSGLARKAGLDPTSFNKSKRVGPDGRMRWPSTESIAKVLEATGARIDQFVTLISNDNHQVNAVHETLPDGNFPPQIGTIPLLGLAQAGSGGFFDDGGFPAGQGWDLVDLPTSAKPGVYALEIQGDSMKPLYRDGDILIVEPGAPVRRGDRVVVKTCDGEVMAKVLGRQTARTVDLISINPDHPNRVLDMQDVEWIARIIWVSQ | not soluble |
| QSGHTKKINDKEMLDYKGRIPVGTLTLKFDQPVKDPILDFSGLGGYNIFSAHHEEASHEGIRNWEVRNGKIVVTGESASVVGAQINDQIRGSFNHTDLELETPGVKLVELAKNSNLKVDDRSISTVAANNDYVCNTPNDYQTLPEELENGPSYEQNDAFLSPVMKPAGCGSVLAQGEFSELKFTLFSSVEPMSSFAHDTHKTGLLYFAGGVNGGNANPVTPIPMLEGYSKPQEVSDTSNGDLFRMSIRLPEEPVKGSVSVGDFVWIDKDADGRQDDNEPGLAGVKLWLYGPDGGPVTDVHGKVVKSVTTGEDGKYSFKDLPVLTGSDSYTVKVVDVPAGYKPTLSGTGKVPAFKDSSTDLAKSTPGALSENGAQDLTLDFGFVKESATPSDPTVPGFK | not soluble |
| HRIDTKTAQKDKFGAGKNGFTRGNPQTGTPATDLDDDYFDMLQEELCSVVEASGASLEKGRHDQLLTALRALLLSRKNPFGDIKSDGTVQTALENLGLGEGAKLNAATATLGRTGFIAIPVMIGGIEQSVIIQWGWNAAKASASGGDGNTVVFPVAFNNACVAVVANYDNVSAPINAVATGGYTTTSFLLRCAAQTGSYYYNWIAIGY | not soluble |
| MRVSCVYATASRWGGPPVASEVRGDAAISTTPDAAPGLAARRRRILFVAEAVTLAHVVRPFALAQSLDPSRYEVHFACDPRYNQLLGPLPFRHHAIHTIPSERFFGNLTQGRFYAMRTLRKYVEADLRVLDEIAPDLVVGDLRISLSVSARLAGIPYIAIANAYWSPYAQRRFPLPDVIWTRLFGVRLVKLLYRLERPLLFALQCMPLNWVRRRHGLSSLGWNLCRIFTDGDHTLYADVPELMPTYDLPANHEYLGPVLWSPAGKPPTWWDSLPTDRPIVYATLGTSGGRNLLQLVLNALAELPVTVIAATAGRSDLKTVPANAFVADYLPGEAAAARSAVVVCNGGSLTTQQALVAGVPVIGVAGNLDQHLNMEAVERAGAGVLLRTERLKSQRVAGAVMQVISRSEYRQAAARLADAFGRDRVGFPQHVENALRLMPENRPRTWLAS | not soluble |
| MTREAFAPYQCLATDLLKYLPSDQNDGSHDLAHIHRVWVNAHRIQRVEGGDLEILLAATVLHDCVAVEKHSPLRGQASTLSANKAASVLAEMGWPSGRVEQVVHAIKTHSYSAGFEPLTREACILQDSDRLDAIGAVGIARCFYVAGRMGSALYDFENPFAQQRAYQDGAYAIEHFQTKLLKLASGFKTQEGARLAAERHTRLETFLTQFMDEITGAGLEHHHHHH | soluble |
| MIDILLCDVIITIGDVEIKAHKTILAAGSTYFKTMFTTPMIARDLATRVNLQMFDKMSSKILYSTYTIGI | not soluble |
| SHMQLKFAECLEKKVDMSKVNLEVIKPWITKRVTEILGFEDDVVIEFIFNQLEVKNPDSKMMQINLTGFLNGKNAREFMGELWPLLLSAQENIAGIPSAFLELKKEEIKQR | soluble |
| GSPEFKTIDASVSKKAADSTSQCGKATGSDSSGVIDLTMDDEESGASQD | soluble |
| MQDTDFFSWRRTMLLRFQRMEAAEEAYHEIELQAQQLEYDYYSLCVRHPVPFTRPKVAFYTNYPESWVSYYQAKNFLAIDPVLNPENFSQGHLMWNDDLFSEAQPLWEAAHAHGLRRGVTQYLMLPNRALGFLSFSRCSTREIPILSDELQLKMQLLVRESLMALMRLNDEIVMTPEMNFSKREKEILKWTAEGKTSAEIAMILSITG | not soluble |
| MGLIVDDDNDGEVLIPPPNFSMVEDEIYRSGFPELENFGFLSTLNLRSIIYLCPEPYPEDNLKSLASNNIKLFQFGIEGKTDPPTPMPKDTVLSALRVLVDVRNHPILIHCKRGKHRTGCLVGCLRKVQNWCLSSVLEEYQKCAGLKWRQRDLRFIEDFDVLRLKQCLYSIIYQYNGYGLKRRKLLYQEENVVQEQQKPQATKG | soluble |
| AEQLRGEPWFHGKLSRREAEALLQLNGDFLVRESTTTPGQYVLTGSQSGQPKHLLLVDPEGVVRTKDHRFESVSHLISYHMDNHLPIISAGSELCLQQPVERKLLEH | soluble |
| MAAQESLHVKTPLRDSMALSKVAGTSVFLKMDSSQPSGSFKIRGIGHLCKMKAKQGCKHFVCSSAGNAGMATAYAARRLGLPATIVVPSTTPALTIERLKNEGATVEVVGEMLDEAIQLAKALEKNNPGWVYISPFDDPLIWEGHTSLVKELKETLSAKPGAIVLSVGGGGLLCGVVQGLREVGWEDVPIIAMETFGAHSFHAAVKEGKLVTLPKITSVAKALGVNTVGAQTLKLFYEHPIFSEVISDQEAVTAIEKFVDDEKILVEPACGAALAAVYSGVVCRLQAEARLQTPLASLVVIVCGGSNISLAQLQALKAQLGLNELLK | soluble |
| AKRYWNANLDTYHPKNVSQNRALLTIRVFVHNFNPEEGKGLTFVGSPGVGKTHLAVATLKAIYEKKGIRGYFFDTKDLIFRLKHLMDEGKDTKFLKTVLNSPVLVLDDLGSERLSDWQRELISYIITYRYNNLKSTIITTNYSLQREEESSVRISADLASRLGENVVSKIYEMNELLVIKGSDLR | soluble |
| MSLAYIYLMRHAKTVMNIEGRWQGINDSDIPEESLRHFEERIRFLAGKNIKAIYSSCLVRSIKSATVAASILGIDHIETVRGFNERDLGLMEGKTNDEIREKFGITDIYIASRAIESIPMVEPWPKFVGRVMATLQAFSGRDGSLVITHGGVMRAIYNTLTGSNERRVIFDNGYILKLEFSGSWRISEIIGQEGHHHHHH | soluble |
| MYGILCLSLRRIFQWHTYSMVRIHSLNTMNILTNLEFSFPILYSYETLNTMLRKQRRLYMPRTNYIDIMEKNHMEIPWHDYTNADSNALIANADLIEKASVIGRVGLIMLSCGTGAWRVRTSMNKLSKELGVTCTVDVGLMSIEFNCFDGNDCVSQSLSIANTGVNTSKLYRMEQFVDNFPNEEAHLTGEMIHKRLDEIEQIHTLYSPVKLG | not soluble |
| MGSDKIHHHHHHMNYTFELKELQATHIVYLHHQGDISLIPSSIRKLMQWAGPKGLINGPANKLISVYQHEGKVLSVDIGLTVPQEVEGESEISKGLLSGGLYAIGHFEIGTDEIPAAWSLMYTLTSKHQCKPCAGKSFEIYQSIPLDQHPQDKCMIDLCIPVQMIDLKLIEEKAISILTECDTAMLASVTEEGYPRPVPMGKIKADGISQIWFSTGTFSDKTIQFQLNPKAGVCFMKGGDSIVLTGKVEIVSDMEIKKALWSDWMFAHFPGGVIDPSYCILKFTSEEATYWIDNEFVKASI | not soluble |
| MVSHHNLTTGATLINEQWLLTTAKNLFLNHSENATAKDIAPTLTLYVGKKQLVEIEKVVLHPNYSQVDIGLIKLKQKVSVNERVMPICLPSKDYAEVGRVGYVSGWGRNANFKFTDHLKYVMLPVADQDQCIRHYEGSTVPEKKTPKSPVGVQPILNEHTFCAGMSKYQEDTCYGDAGSAFAVHDLEEDTWYATGILSFDKSCAVAEYGVYVKVTSIQDWVQKTIAEN | not soluble |
